From patent US20170334988A1 (WALTER AND ELIZA HALL INSTITUTE OF MEDICAL RESEARCH, published 2017)
Ends that are not written are not given here. * marks the point of attachment. Biotin = O=C1N[C@H]2[C@H](CS[C@H]2CCCCC(=O)*)N1

Legend:
[1] = target: T1, human Bak 8-mer peptide YVFYRHQQ (residues 38-45) (human); test: peptide ELISA, A405
T1 peptide: Biotin-SGSGYVFYRHQQ

EEQVAQDT = target: T2, EEQVAQDT; test: peptide ELISA, A405
T2 construct: member of m19; also called hBak 8-mer 24-31
T2 peptide: Biotin-SGSGEEQVAQDT

DTEEVFRS = target: T3, DTEEVFRS; test: peptide ELISA, A405
T3 construct: member of m19; also called hBak 8-mer 30-37
T3 peptide: Biotin-SGSGDTEEVFRS

SEEQVAQD = target: T4, SEEQVAQD; test: peptide ELISA, A405
T4 construct: member of m19; also called hBak 8-mer 23-30
T4 peptide: Biotin-SGSGSEEQVAQD

QDTEEVFR = target: T5, QDTEEVFR; test: peptide ELISA, A405
T5 construct: member of m19; also called hBak 8-mer 29-36
T5 peptide: Biotin-SGSGQDTEEVFR

QVAQDTEE = target: T6, QVAQDTEE; test: peptide ELISA, A405
T6 construct: member of m19; also called hBak 8-mer 26-33
T6 peptide: Biotin-SGSGQVAQDTEE

EEVFRSYV = target: T7, EEVFRSYV; test: peptide ELISA, A405
T7 construct: member of m19; also called hBak 8-mer 32-39
T7 peptide: Biotin-SGSGEEVFRSYV

VAQDTEEV = target: T8, VAQDTEEV; test: peptide ELISA, A405
T8 construct: member of m19; also called hBak 8-mer 27-34
T8 peptide: Biotin-SGSGVAQDTEEV

EQVAQDTE = target: T9, EQVAQDTE; test: peptide ELISA, A405
T9 construct: member of m19; also called hBak 8-mer 25-32
T9 peptide: Biotin-SGSGEQVAQDTE

SYVFYRHQ = target: T10, SYVFYRHQ; test: peptide ELISA, A405
T10 construct: member of m19; also called hBak 8-mer 37-44
T10 peptide: Biotin-SGSGSYVFYRHQ

EAEGVAAP = target: T11, EAEGVAAP; test: peptide ELISA, A405
T11 construct: member of m19; also called hBak 8-mer 48-55
T11 peptide: Biotin-SGSGEAEGVAAP

VFRSYVFY = target: T12, VFRSYVFY; test: peptide ELISA, A405
T12 construct: member of m19; also called hBak 8-mer 34-41
T12 peptide: Biotin-SGSGVFRSYVFY

AEGVAAPA = target: T13, AEGVAAPA; test: peptide ELISA, A405
T13 construct: member of m19; also called hBak 8-mer 49-56
T13 peptide: Biotin-SGSGAEGVAAPA

GVAAPADP = target: T14, GVAAPADP; test: peptide ELISA, A405
T14 construct: member of m19; also called hBak 8-mer 51-58
T14 peptide: Biotin-SGSGGVAAPADP

TEEVFRSY = target: T15, TEEVFRSY; test: peptide ELISA, A405
T15 construct: member of m19; also called hBak 8-mer 31-38
T15 peptide: Biotin-SGSGTEEVFRSY

EVFRSYVF = target: T16, EVFRSYVF; test: peptide ELISA, A405
T16 construct: member of m19; also called hBak 8-mer 33-40
T16 peptide: Biotin-SGSGEVFRSYVF

VAAPADPE = target: T17, VAAPADPE; test: peptide ELISA, A405
T17 construct: member of m19; also called hBak 8-mer 52-59
T17 peptide: Biotin-SGSGVAAPADPE

EGVAAPAD = target: T18, EGVAAPAD; test: peptide ELISA, A405
T18 construct: member of m19; also called hBak 8-mer 50-57
T18 peptide: Biotin-SGSGEGVAAPAD

RSYVFYRH = target: T19, RSYVFYRH; test: peptide ELISA, A405
T19 construct: member of m19; also called hBak 8-mer 36-43
T19 peptide: Biotin-SGSGRSYVFYRH

AQDTEEVF = target: T20, AQDTEEVF; test: peptide ELISA, A405
T20 construct: member of m19; also called hBak 8-mer 28-35
T20 peptide: Biotin-SGSGAQDTEEVF

FRSYVFYR = target: T21, FRSYVFYR; test: peptide ELISA, A405
T21 construct: member of m19; also called hBak 8-mer 35-42
T21 peptide: Biotin-SGSGFRSYVFYR

[2] = target: T22, Bak loop peptide 46EQEAEGVAAPADPEMVTLPLQPSS69 (human); test: ITC at 25° C., Ab at 5 µM and peptide at 100 µM
T22 construct: also called Bak peptide (residues E46 to S69 of human Bak)
T22 peptide: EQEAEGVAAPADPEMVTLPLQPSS
Experimental: (§1) FIG. 19: Isothermal Titration Microcalorimetry binding profile of 26/05-7D10-17-13 with loop peptide (⁴⁶[…]⁶⁹; SEQ ID NO: 21) at 25° C. A) Titration with Ab at 5 μM and peptide at 100 μM.
(§2) ITC experiments were performed using a MicroCal iTC 200 instrument from GE. Injections of 2.43 μl of peptide solution were added from a computer-controlled microsyringe at an interval of 3 min into the sample solution of antibody (cell volume=300 μl) with stirring at 1000 rpm. Titrations were done at pH 7.2 using […] phosphate-buffered saline. The experimental data were fitted to a theoretical titration curve using software supplied by Microcal.

[3] = target: T23, mouse Bak 15-mer peptide 81-95; test: peptide ELISA, A405
T23 construct: member of m18
T23 peptide: Biotin-SGSGDDINRRYDTEFQNLL
Experimental: (§3) Since most epitopes were linear, further mapping was performed using peptide arrays. Two arrays of overlapping 15-mer peptides (each offset by 10 residues) that collectively spanned the entire sequences of human and mouse Bak were designed. Biotinylated peptides were immobilized on streptavidin-coated plates and each antibody tested by ELISA.

[4] = target: T24, human Bak 15-mer peptide 21-35; test: peptide ELISA, A405
T24 construct: member of m17
T24 peptide: Biotin-SGSGSASEEQVAQDTEEVF
Experimental: as §3

[5] = target: T25, human Bak 15-mer peptide 1-15; test: peptide ELISA, A405
T25 construct: member of m17
T25 peptide: Biotin-SGSGMASGQGPGPPRQECG
Experimental: as §3

[6] = target: T26, human Bak 15-mer peptide for residues 11-25 (human, UniProt Q16611 11-25); test: peptide ELISA, A405
T26 construct: range 11-25
T26 peptide: Biotin-SGSGRQECGEPALPSASEE
Experimental: as §3

[7] = target: T27, mouse Bak 15-mer peptide 71-85; test: peptide ELISA, A405
T27 construct: member of m18
T27 peptide: Biotin-SGSGQVGRQLALIGDDINR
Experimental: as §3

[8] = target: T28, mouse Bak 15-mer peptide 31-45; test: peptide ELISA, A405
T28 construct: member of m18
T28 peptide: Biotin-SGSGEVFRSYVFYLHQQEQ
Experimental: as §3

[9] = target: T29, human Bak 15-mer peptide 51-65; test: peptide ELISA, A405
T29 construct: member of m17
T29 peptide: Biotin-SGSGGVAAPADPEMVTLPL
Experimental: as §3

[10] = target: T30, human Bak 15-mer peptide 81-95; test: peptide ELISA, A405
T30 construct: member of m17
T30 peptide: Biotin-SGSGIGDDINRRYDSEFQT
Experimental: as §3

[11] = target: T31, human Bak 15-mer peptide 31-45; test: peptide ELISA, A405
T31 construct: member of m17
T31 peptide: Biotin-SGSGTEEVFRSYVFYRHQQ
Experimental: as §3

[12] = target: T32, mouse Bak 15-mer peptide 41-55; test: peptide ELISA, A405
T32 construct: member of m18
T32 peptide: Biotin-SGSGHQQEQETQGAAAPAN
Experimental: as §3

[13] = target: T33, mouse Bak 15-mer peptide 21-35; test: peptide ELISA, A405
T33 construct: member of m18
T33 peptide: Biotin-SGSGSEQQVAQDTEEVFRS
Experimental: as §3

[14] = target: T34, human Bak 15-mer peptide 41-55; test: peptide ELISA, A405
T34 construct: member of m17
T34 peptide: Biotin-SGSGYRHQQEQEAEGVAAP
Experimental: as §3

human Bak G51C = target: T35, human Bak G51C (human, UniProt Q16611 2-211); test: immunoprecipitation from membranes incubated with or without tBid, western blot
T35 construct: whole, on cells; In membrane fractions
T35 sequence (looked up): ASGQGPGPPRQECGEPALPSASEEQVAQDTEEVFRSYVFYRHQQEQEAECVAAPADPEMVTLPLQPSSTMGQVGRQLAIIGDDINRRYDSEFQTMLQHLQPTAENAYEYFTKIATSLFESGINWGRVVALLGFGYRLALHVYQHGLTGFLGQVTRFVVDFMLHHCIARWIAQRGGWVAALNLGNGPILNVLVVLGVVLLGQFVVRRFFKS
Experimental: FIG. 4: Ability of antibodies to recognize Bak in different conformations. Membrane fractions from cells expressing Bak (as indicated) were incubated (30 min, 30° C.) with (+) or without (−) Bid, solubilized with digitonin, and incubated with the Bak antibodies shown. Bak in immunoprecipitates and whole cell lysate controls was detected by western blot using the 4B5 antibody. Data are representative of at least two independent experiments ND, not done.
Following activation of Bak in membrane fractions, samples were solubilized by incubation with 1% digitonin on ice for at least 30 min. […] After removing beads by repeated washes in Onyx buffer, lysates were incubated with constant agitation for 2 h at 4° C. with 4 ug/ml anti-Bak antibody, followed by incubation for 1 h at 4° C. with additional pre-washed Sepharose G beads. Immune complexes were isolated by centrifugation (13000 rpm, 2 min, 4° C.), washed 4 times with Onyx buffer, resuspended in sample buffer containing 2-mercaptoethanol and analyzed by western blotting.

[15] = target: T22, Bak loop peptide …; test: SPR, BIAcore 3000
[16] = target: T36, human BakΔC25 protein (residues 1-186 of SwissProt Accession No. Q16611.1) (human, UniProt Q16611 1-186); test: SPR, BIAcore 3000
T36 construct: also called humanAC25 Bak protein; hBakAC
T36 sequence: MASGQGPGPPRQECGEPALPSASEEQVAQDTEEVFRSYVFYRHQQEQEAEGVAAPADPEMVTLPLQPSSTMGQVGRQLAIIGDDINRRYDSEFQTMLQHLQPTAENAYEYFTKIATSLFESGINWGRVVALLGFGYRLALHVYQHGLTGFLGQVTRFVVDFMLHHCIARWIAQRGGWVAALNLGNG

[17] = target: T22, Bak loop peptide …; test: ITC at 25 °C, Ab 2.5 µM, peptide 50 µM, OneSites model
Experimental: as §1, §2

[18] = target: T22, Bak loop peptide …; test: ITC at 25 °C, Ab 5 µM, peptide 100 µM, OneSites model
Experimental: as §1, §2

[19] = target: T22, Bak loop peptide …; test: ITC at 25° C., Ab at 2.5 µM and peptide at 50 µM
Experimental: as §1, §2

- binding result [1]: no binding
- binding result (EEQVAQDT): no binding
- binding result (DTEEVFRS): no binding
- binding result (SEEQVAQD): no binding
- binding result (QDTEEVFR): no binding
- binding result (QVAQDTEE): no binding
- binding result (EEVFRSYV): no binding
- binding result (VAQDTEEV): no binding
- binding result (EQVAQDTE): no binding
- binding result (SYVFYRHQ): no binding
- binding result (EAEGVAAP): binds
- binding result (VFRSYVFY): no binding
- binding result (AEGVAAPA): binds
- binding result (GVAAPADP): binds
- binding result (TEEVFRSY): no binding
- binding result (EVFRSYVF): no binding
- binding result (VAAPADPE): binds
- binding result (EGVAAPAD): binds
- binding result (RSYVFYRH): no binding
- binding result (AQDTEEVF): no binding
- binding result (FRSYVFYR): no binding
- Kd [2]: < 4.3 nM
- binding result [3]: no binding
- binding result [4]: no binding
- binding result [5]: no binding
- binding result [6]: no binding
- binding result [7]: no binding
- binding result [8]: no binding
- binding result [9]: binds
- binding result [10]: no binding
- binding result [11]: no binding
- binding result [12]: binds
- binding result [13]: no binding
- binding result [14]: binds
- binding result (human Bak G51C): no binding
- Kd [15]: 2.9 nM
- Kd [16]: 0.466 nM
- Ka [17]: 2.26e+08 M⁻¹
- ΔH [17]: -29.3 kcal/mol
- ΔS [17]: -60 cal/mol/deg
- Ka [18]: 2.34e+08 M⁻¹
- ΔH [18]: -23.1 kcal/mol
- ΔS [18]: -39.2 cal/mol/deg
- Kd [19]: < 4 nM
B1: 26/05-7D10-17-13 antibody (antibody, V domains shown)
VH: EVELVESGGDLVQPGRSLKLSCAASGFTFSNLAMAWVRQTPTKGLEWVASISPAGITTYYRDSVKGRFTISRDNARNTQYLQMDSLRSEDTATYYCARHTGKSSFFDYWGQGVMVTVSS
VL: DVQMTQSPSYLAASPGESVSISCKATENINTYLAWYQAKPGKTTKLLLYSGSTLQSGTPSRFSGSGSGTDFTLTISSLEPEDFAVYYCQQHNEYPLTFGSGTKLEIK
notes: Rat IgG monoclonal antibody from hybridoma SW1 (ECACC 15041601), WEHI monoclonal antibody facility; also called 26/05-7D10-17-13 MAb; 26/05-7D 10-17-13 anti-Bak antibody
